Assay results from the MegaScale stability set (Tsuboyama et al. 2023).

B1: EHEE_rd2_0601 (parent)
chain: TYTYKLTDEEASRRAEDEWRNRGYDVRVRNNNGTWEVEVR
B2: 2M8U (parent)
chain: TKAQVIEAFKVFDRDGNGYVTVDYLRKVLNELGDMMPADEIEEMIYEADPQNSGYVQYETFVGMLFL

Variants of: B1
Assay: folding stability dG (cDNA display proteolysis); higher = more stable
Details: PBS, room temperature

Folding stability dG [kcal/mol], by site and new letter:
Y2: V 1.63; D 0.375; E 0.682; L 1.41; P 0.083; W 2.04; M 1.46; G 0.413; Q 1.04; N 0.674; K 1.33; A 0.941; H 1.37; R 1.58; F 1.76; S 0.609; T 1.38; I 1.69
S12: L 1.39; T 1.51; Y 0.95; M 1.95; Q 0.072; I 0.918; K 0.553; F 1.08; E -0.128; V 2.17; D -0.63; A 3.22; G 1.14; W 0.977; P -0.764; H -0.243; C 2.33; R 0.481; N -0.531
D8: I 0.306; Q 0.142; R -0.434; T 1.74; W 0.339; N 1.47; C 1.07; L 0.261; Y 0.298; K -0.424; F 0.427; V -0.022; A 0.271; S 1.9; G 0.808; H 0.365; E 0.662; M 0.146
L6: R -0.655; I 1.15; G 0.912; V 2.08; F 3.77; M 1.97; Y 3.41; T 1.8; Q 0.88; E 0.639; S 1.23; D 0.391; P -0.21; H 1.48; W 1.14; A 1.4; K -0.09; N 0.622
R13: A 0.771; C 0.559
A11: E 1.5; N 0.709; K 0.673; S 1.58; T 1.19; Y 0.624; M 1.11; D 1.12; G 0.768; L 0.971; R 0.546; I 0.447; Q 1.22; V 0.486; P -0.502; F 0.664; W 0.697; H 0.875
E9: N 0.05; Q 1.07; K 0.834; Y 1.58; P 0.822; F 1.29; V 0.885; S 0.61; L 1.14; H 0.807; G 0.631; T 0.198; W 1.26; M 0.936; D 0.289; A 1.12; R 0.802; I 0.934
T3: Y 1.36; W 1.24; G 0.036; D 0.044; S 0.898; P -0.035; E 0.117; I 1.92; K 1.13; L 1.46; R 1.12; H 0.873; Q 0.604; M 1.18; F 1.37; V 1.82; N 0.532; A 0.556; C 2.36
Y4: M 1.14; N -0.767; C 1.16; I 1.58; W 1.12; L 1.36; G -0.985; Q 0.276; S -0.488; P -0.228; T -0.316; F 1.94; K -0.308; D -0.109; V 0.852; A -0.411; E 0.419; H 0.191
E10: I 1.3; K 1.19; H 1.09; L 1.34; C 1.88; P 1.02; R 1.06; A 1.75; M 1.41; N 1.12; Q 1.41; D 1.38; T 1.23; Y 1.29; F 1.2; V 1.27; W 1.28; G 1.1; S 1.22
T7: E 1.85; P 2.05; S 1.63; C 2; V 1.63; D 1.81; Y 2.02; R 1.61; I 1.62; M 1.78; A 1.94; L 1.82; Q 1.86; N 1.62; F 1.91; H 1.69; W 1.64; G 1.69; K 1.79
T1: M 1.33; L 1.37; Y 1.81; D 0.915; I 1.73; K 1.28; A 1.41; P 1.15; N 1.19; G 1.37; V 1.86; E 0.815; S 1.62; H 1.44; R 1.35; Q 1.03; F 1.73; W 2.65
K5: G 0.688; W 1.83; F 2.34; S 1.58; L 1.84; R 1.56; D 0.851; H 1.74; N 1.38; E 1.31; Q 1.71; M 1.72; A 1.38; Y 2.64; T 1.95; P 0.658; V 1.97; I 2.2

Variants of: B2
Assay: as above
Details: PBS, room temperature

Folding stability dG [kcal/mol], by site and new letter:
V62: D 1.28; H 1.7; L 2.76; T 3; E 1.66; K 1.97; R 1.93; G 1.93; P 1.22; W 2.11; N 1.68; S 2.36; I 3.29; Q 1.94; F 2.15; M 2.67; Y 2.11
F66: H 2.67; I 2.84; V 2.84; K 2.73; W 3.19; C 2.86; Y 2.71; Q 2.55; N 2.92; S 2.72; R 2.78; T 2.83; D 2.96; M 2.88; G 2.57; A 2.62; P 2.87; L 2.59; E 2.56
M64: A 3.21; E 3.29; K 4.14; D 3.23; Q 3.53; W 3.59; R 4.29; F 3.34; I 3.15; L 3.74; P 2.66; S 3.08; C 3.37; G 3.04; Y 3.25; V 3.03; N 3.83; T 3.29; H 3.69
G63: W 3.31; I 3.41; R 3.54; F 3.29; A 3.66; Q 3.47; S 3.63; K 3.45; T 3.77; C 3.58; Y 3.48; E 4.11; P 2.16; H 3.72; N 3.97; V 3.42; D 4.19; L 3.36; M 3.79
L65: R 2.22; Q 1.84; F 3.28; C 2.6; M 3.67; G 2.19; S 1.7; Y 3.04; T 1.96; P 1.55; K 1.94; E 1.82; H 2.65; I 3.11; W 3.25; V 2.72; D 1.97; N 2.26; A 2.23
L67: Y 3.08; N 3.67; K 3.57; I 3.3; V 3.28; A 3.98; P 3.9; H 3.62; C 3.61; D 4.28; T 3.3; F 3.22; M 3.46; R 3.81; W 3.08; G 3.49; S 3.6; Q 3.8; E 3.96
